Measurements reported in patent US20250161220A1, “LYMPHATIC DELIVERY OF NANOPARTICLES TO TREAT NEURODEGENERATIVE, NEUROLOGICAL, AND EYE CONDITIONS” (The Cleveland Clinic Foundation, priority 2022, published 2025).

Assay: Catalytic activity of recombinant human CAT versus bovine CAT
Format: biochemical
Conditions: data normalized to per mg
Text: In certain embodiments, the nanoparticles are formulated with antioxidant enzymes. For example, the following may be employed for generating SOD and catalase nanoparticles. […] In certain embodiments, SOD is an enzyme that catalyzes the conversion of superoxide to H2O2 and catalase is an enzyme that further degrades H2O2 to molecular oxygen and water. The SOD and catalase for use in the methods and compositions of the invention can be obtained from a variety of sources. In a particular embodiment, the SOD and/or catalase are mammalian SOD and/or mammalian catalase, and/or recombinant catalase. As used herein “mammal” and/or “mammalian” refer to a primate, canine, feline, rodent, and the like. Specific examples of mammalian SOD and/or catalase include human, pig, dog, cat, horse, cow, sheep, goat, rabbit, guinea pig, rats and mice SOD and/or catalase.

B1: Human CAT: Recombinant human catalase obtained from BioVision or Creative BioMart (protein, UniProt P04040 2-527, looked up)
Catalase: ADSRDPASDQMQHWKEQRAAQKADVLTTGAGNPVGDKLNVITVGPRGPLLVQDVVFTDEMAHFDRERIPERVVHAKGAGAFGYFEVTHDITKYSKAKVFEHIGKKTPIAVRFSTVAGESGSADTVRDPRGFAVKFYTEDGNWDLVGNNTPIFFIRDPILFPSFIHSQKRNPQTHLKDPDMVWDFWSLRPESLHQVSFLFSDRGIPDGHRHMNGYGSHTFKLVNANGEAVYCKFHYKTDQGIKNLSVEDAARLSQEDPDYGIRDLFNAIATGKYPSWTFYIQVMTFNQAETFPFNPFDLTKVWPHKDYPLIPVGKLVLNRNPVNYFAEVEQIAFDPSNMPPGIEASPDKMLQGRLFAYPDTHRHRLGPNYLHIPVNCPYRARVANYQRDGPMCMQDNQGGAPNYYPNSFGAPEQQPSALEHSIQYSGEVRRFNTANDDNVTQVRAFYVNVLNEEQRKRLCENIAGHLKDAQIFIQKKAVKNFTEVHPDYGSHIQALLDKYNAEKPKNAIHTFVQSGSHLAAREKANL
With B1 the “catalytic potency relative to bovine CAT” value was 5.7 fold.
